The values below come from US20160159924A1 (Novo Nordisk, published 2016).

Where only a bound is given, the exact number is not on record here.

In experiment [1] the target is T1, recombinant human sc-uPA (human, UniProt P00749 21-431). The experiment in a line: cell-based or functional assay.
Experiment [2] concerns the target T2, recombinant cynomolgus sc-uPA (cynomolgus monkey, UniProt P16227 29-433 (Papio cynocephalus entry)). The experiment in a line: cell-based or functional assay.
Experiment [3] deals with T1, recombinant human sc-uPA. The experiment in a line: cell-based or functional assay. The source holds these as a separate data set.
The target in experiment [4] is recombinant human tc-uPA (R&D Systems, #1310-SE) (human, UniProt P00749 21-178; P00749 179-431). The experiment in a line: cell-based or functional assay.
For experiment [5], the target named is T1, recombinant human sc-uPA. The experiment in a line: SPR (Biacore T200), mAb immobilised, sc-uPA as analyte. How it is done: (§1) Affinities of the anti-uPA mAbs towards human and cynomolgus sc-uPA (SEQ ID NO: 1 and 3) were measured by SPR using a Biacore T200 instrument (GE Healthcare). These studies were performed using a direct binding procedure. […] Injection time was 60 sec., followed by 180 sec. dissociation. Regeneration was performed by injection of two short pulses of glycine-HCl pH 1.5.
(§2) The kinetic parameters (kₐ, kd and KD) for the interaction were calculated using a 1:1 interaction Langmuir fitting model.
(§3) Results are shown in Table 2 Association rate constant (ka) and Dissociation rate constant (kd) were measured. Equilibrium dissociation constant is calculated as KD=kd/ka.

The target in experiment [6] is T2, recombinant cynomolgus sc-uPA. Described as above. How it is done:
as §1, §2, §3

In experiment [7] the target is endogenously derived human uPA (primary human M1/M2 macrophages; human neutrophil granulocytes) (human, UniProt P00749 21-431). The experiment in a line: cell-based or functional assay.
For experiment [8], the target named is T1, recombinant human sc-uPA. Briefly: SPR (Biacore), mAb immobilised, sc-uPA as analyte, 25 C. How it is done: (§4) In order to compare with murine mAb, the binding profile to recombinant human sc-uPA protein (SEQ ID NO: 1) and cynomolgus sc-uPA (SEQ ID NO: 3) was measured by surface plasmon resonance (SPR).
(§5) The experiments were performed on a Biacore™ instrument (GE Healthcare) and analysed with the BIAcore 4000 Evaluation Software. […] Recombinant human sc-uPA and cynomolgus sc-uPA proteins were diluted in HBS-N (GE Healthcare Cat BR-1006-70) with 1% BSA buffer with a dilution factor 3× ranging 1000-0.13 nM. Recombinant human sc-uPA and cynomolgus sc-uPA proteins were injected for 60 s, followed by a 600 s dissociation phase. Binding curves were measured at 25° C. with a flow rate of 30 μL/min. Regeneration of the chip surface was performed with pH1.5 Glycine for 25 s at 30 μl/min. Determination of the kinetic parameters was performed by fitting with a 1:1 binding model. Kinetic parameters were calculated and are stated in Table 14 below.
For orientation: In SPR one partner is held on a chip, and binding of the other changes the refractive index at the surface.

The target in experiment [9] is T2, recombinant cynomolgus sc-uPA. The description is as above. How it is done: as §4, §5

B1: 0266-0000-0010 (antibody, IgG1, V domains shown)
VH: DVKLVESGGGLVKPGGSLKLSCVASGFTFSSYTMSWVRQTPEKRLEWVATISGGGSHIYYADSVKGRFTISRDNAKNTLYLQMSSLKSEDTAIYYCTRDGRDGSWFAYWGQGTLVTVSA
VL: DIVMTQSPATLSVTPGDRVSLSCRTSQSIGDYLHWYQQKSHESPRLLIKYVSQSISGIPSRFSGSGSGSDFTLSINSVESEDVGVYYCQNSHSFPLTFGSGTKLELK
As to B1, the “IC50, coupled zymogen activation assay, sc-uPA immobilized on uPAR of U937 cells” value (“IC50 … of U937 cells” below) in experiment [1] was less than 0.7 nM. Also, in experiment [2], the “IC50, coupled zymogen activation assay with cynomolgus sc-uPA” value stood at 0.9 nM. Besides, in experiment [3], the “IC50, coupled zymogen activation assay (Ex. 5)” value was less than 0.7 nM and the “IC50, sc-uPA activation assay (Ex. 8)” value was 5 nM. In addition, in [4], the “IC50, tc-uPA catalytic assay (Ex. 7)” value stood at 113 nM. In addition, in experiment [5], the Kd is 1.02 nM, the koff stood at 0.000345 s⁻¹ and the kon stood at 340000 M⁻¹ s⁻¹. In [6], the Kd was 0.121 nM, the off-rate (koff) is 5.74e-05 s⁻¹ and the kon is 473000 M⁻¹ s⁻¹.

B2: 0266-0000-0043 (antibody, human IgG4 S228P, kappa, V domains shown)
VH: DVKLVESGGGLVKPGGSLRLSCAASGFTFSSYTMSWVRQAPGKGLEWVATISGGGSHIYYADSVKGRFTISRDNAKNSLYLQMNSLRAEDTAVYYCTRDGRDGSWFAYWGQGTLVTVSS
VL: DIVMTQSPAFLSVTPGEKVTISCRTSQSIGDYLHWYQQKPDQSPKLLIKYVSQSISGIPSRFSGSGSGSDFTFTISSLEAEDAATYYCQNSHSFPLTFGGGTKVEIKR
notes: also called rec0266-0000-0043
Regarding B2, in experiment [1], the “IC50 … of U937 cells” value is less than 0.7 nM. For the same molecule, in [7], the “IC50, plasmin generation by human M1/M2 macrophages” value is 2.1 nM. In addition, in experiment [8], the equilibrium dissociation constant (Kd) came out at 1.78 nM, the off-rate constant (koff) was 0.0009 s⁻¹ and the kon came out at 506000 M⁻¹ s⁻¹. In [9], the Kd stood at 0.112 nM, the koff was 0.000164 s⁻¹ and the on-rate (kon) came out at 1.46e+06 M⁻¹ s⁻¹.

B3: 0266-0000-0015 (antibody, IgG1, V domains shown)
VH: QIQLVQSGPELKKPGETVRISCKASGYTFTDYGMNWIKQTPGKGLKWMGWINTYSGEPTYSDEFKGRFAFSLETSASTASLQINNLKNEDMATYFCARDFDDYDSSRYFDVWGAGTTVTVSS
VL: DIVMSQSPSSLGVSVGEKLTMTCKSSQSLLYSSYQKNFLAWYQQKPGQSPKLLISWASTRDSGVPDRFTGSGSGTDFTLTISSVKAEDLAVYYCQQYYIYPPTFGGGTKLEIK
notes: also called hybridoma m-uPA-1F58A1
B3: in [1], the “IC50 … of U937 cells” value is less than 0.7 nM. In addition, in [3], the “IC50, coupled zymogen activation assay (Ex. 5)” value was less than 0.7 nM and the “IC50, sc-uPA activation assay (Ex. 8)” value came to 3 nM. The “IC50, tc-uPA catalytic assay (Ex. 7)” value in [4] was determined as 100 nM. Further, in experiment [5], the Kd was determined as 0.37 nM, the koff is 0.000381 s⁻¹ and the on-rate (kon) is 1.03e+06 M⁻¹ s⁻¹. Also, in [6], the dissociation constant (Kd) stood at 5.32 nM, the koff worked out at 0.00717 s⁻¹ and the on-rate constant (kon) was 1.35e+06 M⁻¹ s⁻¹.

As a reminder, the Kd is the concentration at which binding is half-saturated. Usually koff stands for the first-order rate constant of dissociation. One may read the kon as the rate constant with which the complex forms.
